# Source: patent publication US10001489B2, “Method for constructing a novel affinity peptide library for binding immunoglobulin G based on a protein affinity model of protein A” (TIANJIN UNIVERSITY, priority 2012, dated 2018)
# Where no end group is shown, it is not given here.
# Experiments:
# hIgG = test: Affinity chromatography, pulse injection of hIgG on peptide-coupled Thiopropyl Sepharose 6B column; format: binding, human
# Experimental: (§1) Peptide powders purchased from GL Biochem Ltd. (Shanghai, China) had been purified by high performance liquid chromatography (HPLC) with a purity of 96.36%. 1 g of resin (Thiopropyl Sepharose 6B, purchased from GE Healthcare) was weighed and washed for 15 min with 200 mL of deionized water in a buchner funnel. After being filtered and getting rid of water, two aliquots of 1.0 g of drained gel were transferred into two 25-mL Erlenmeyer flasks, respectively. Then 6 mL and 10.7 mL of linking buffer (0.1 M Tris-HCl, pH 7.5, 0.5 M NaCl and 1 mM EDTA) were added to the two flasks respectively, to fully pre-equilibrate the gels. […] The peptides were fully mixed with the gels in corresponding flasks and initial peptide concentrations of 1.0 mg/mL were obtained. The mixtures were reacting in a shaking bath at a rate of 180 rpm, at 25° C. for 2 h. 500 μL of supernatant was acquired each hour for analyzing the residue peptide content in the reaction solution with reversed-phase high pressure liquid chromatography (RP-HPLC). […] After the reaction was finished, the reaction system was centrifuged and the supernatant was removed, then the gel was washed repeatedly with washing buffer (10 mM PBS, pH 7.2, 150 mM NaCl) in a buchner funnel to get rid of the free peptides. Finally, equilibriation buffer (20 mmol/L citrate buffers, pH 5.0-5.5; or 20 mmol/L PBS buffers, pH 5.5-6.0) was used to suspend the gel to 1 mL, and after being degassed, the gel was slowly loaded into the glass column (Tricorn chromatogram column, Tricorn 5×5, GE healthcare). The column was first washed with equilibration buffer at 0.1 mL/min, and then the speed of the buffer was increased to 0.2 mL/min when the column pressure was stable, and the speed of the buffer was increased according to above operation till it reached 1.0 mL/min.
# (1) Equilibration: the affinity column was washed with equilibration buffer until a stable baseline was reached. The flow rate of buffer was 0.5 mL/min, keep washing another five column volumes (CVs) before sample injection. […]
# [1] = biological target: bovine serum albumin (BSA) (Bos taurus, UniProt P02769); test: Affinity chromatography, BSA on peptide-coupled Thiopropyl Sepharose 6B column; format: binding
# Sequence of bovine serum albumin (BSA) (P02769 25-607): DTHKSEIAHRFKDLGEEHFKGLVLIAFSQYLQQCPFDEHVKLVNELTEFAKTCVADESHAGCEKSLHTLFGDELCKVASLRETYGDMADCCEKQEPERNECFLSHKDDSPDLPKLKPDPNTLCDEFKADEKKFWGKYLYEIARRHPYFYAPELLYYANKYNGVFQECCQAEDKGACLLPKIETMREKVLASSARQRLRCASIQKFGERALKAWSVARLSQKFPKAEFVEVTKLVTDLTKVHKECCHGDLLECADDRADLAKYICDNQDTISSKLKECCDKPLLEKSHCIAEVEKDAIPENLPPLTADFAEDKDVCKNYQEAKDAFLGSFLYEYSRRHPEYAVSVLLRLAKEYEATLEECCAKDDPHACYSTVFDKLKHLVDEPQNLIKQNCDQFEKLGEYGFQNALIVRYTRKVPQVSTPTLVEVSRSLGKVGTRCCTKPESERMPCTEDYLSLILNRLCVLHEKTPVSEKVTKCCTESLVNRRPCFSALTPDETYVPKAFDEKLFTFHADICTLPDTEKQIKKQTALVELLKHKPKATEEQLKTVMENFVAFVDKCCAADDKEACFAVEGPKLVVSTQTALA
# Experimental: as §1
# (1) Equilibration: the affinity column was washed with equilibration buffer until a stable baseline was reached. The flow rate of buffer was 0.5 mL/min, keep washing another five column volumes (CVs) before sample injection.
# (2) Sample injection: unless specifically stated, all protein samples were prepared by equilibration buffer. After sample injection, the column was equilibrated with 5-10 CVs of equilibration buffer (20 mmol/L citrate buffer, pH≤5.5; or 20 mmol/L PBS buffer, pH≥5.5). The sample loading amount was 100 μL, protein sample concentration was 1.0 mg/mL, and the flow rate was 0.5 mL/min.
# (3) Elution: the column was washed with 5-10 CVs of elution buffer, and the flow rate was 0.8 mL/min.
# (4) Storage: first 10 CVs of deionized water was used to wash the column, followed by another 10 CVs of 20% ethanol solution. Then the affinity gel was stored in this solution. All buffers should be filtered through a filter and degassed before use.
# [2] = biological target: bovine serum albumin (bovine) (UniProt P02769); test: affinity chromatography, peptide immobilized on Thiopropyl Sepharose 6B, pH 6.0
# Sequence of bovine serum albumin (bovine) (P02769 25-607 limits assumed): as the sequence (P02769 25-607) above
# [3] = biological target: bovine serum albumin (bovine) (UniProt P02769); test: affinity chromatography, peptide immobilized on Thiopropyl Sepharose 6B, pH 5.5
Sequence,binding of hIgG by immobilised peptide ligand (hIgG; pH 5.5-7.0),"binding of hIgG by immobilised peptide ligand (hIgG; pH 6.0, 20 mM PBS)",binding of BSA by immobilised peptide ligand ([1]; pH 5.5),binding of BSA by immobilised peptide ligand (fraction of BSA bound) ([1]; pH 6.0),binding of BSA by immobilised peptide ligand ([1]; pH 6.5),fraction of loaded protein bound (fraction of BSA) [2],fraction of loaded protein bound (fraction of BSA) [3],binding of hIgG by immobilised peptide ligand (hIgG; pH 5.0-6.0)
FYCHWALE (not fully specified (residue 3)) [synthesized and immobilized on Thiopropyl Sepharose 6B],could bind a lot of hIgGs,could bind almost all hIgGs,about half,⅓,trace,,,
FYCHWALE peptide ligand,,,,,,0.333,0.5,
FYWHCLDE (not fully specified (residue 5)) [synthesized and immobilized on Thiopropyl Sepharose 6B],,,large binding,,,,,strong binding
